Experiments:
[1] = target: recombinant human IL-5 (human) (UniProt P05113); assay: cell-based or functional assay
[2] = target: Cynomolgus IL-5 (cynomolgus monkey); assay: cell-based or functional assay

With Mepolizumab (antibody) as the substance, how does the Mean (pM): mean IC50, TF-1.6G4 cell line proliferation assay [1] read?
The Mean (pM): mean IC50, TF-1.6G4 cell line proliferation assay was 534 pM.

What about the Mean (pM): mean IC50, TF-1.6G4 cell line proliferation assay [2] of the same substance?
The Mean (pM): mean IC50, TF-1.6G4 cell line proliferation assay was 584 pM.

— patent publication US20210355205A1
